Measured values published in article doi:10.1101/786475 (bioRxiv, 2019).

Experiments:
Test in all cases: peptide or protein array
[1] = molecular target: T1, Eno2p (spotted on the yeast ProtoArray) (S. cerevisiae, UniProt P00925 1-437)
T1 sequence (looked up): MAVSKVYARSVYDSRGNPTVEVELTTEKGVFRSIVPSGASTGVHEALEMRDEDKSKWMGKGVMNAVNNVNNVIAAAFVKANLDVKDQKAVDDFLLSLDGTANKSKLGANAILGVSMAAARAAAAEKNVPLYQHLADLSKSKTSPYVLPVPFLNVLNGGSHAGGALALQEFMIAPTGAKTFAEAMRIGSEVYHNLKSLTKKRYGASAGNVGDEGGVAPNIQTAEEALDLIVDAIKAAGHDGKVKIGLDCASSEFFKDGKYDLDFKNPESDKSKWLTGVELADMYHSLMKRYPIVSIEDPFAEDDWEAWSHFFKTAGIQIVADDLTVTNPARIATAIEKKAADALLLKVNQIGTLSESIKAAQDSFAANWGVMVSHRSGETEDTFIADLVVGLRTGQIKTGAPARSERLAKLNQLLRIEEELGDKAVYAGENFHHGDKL

[2] = molecular target: T2, Pol30p (spotted on the yeast ProtoArray) (S. cerevisiae, UniProt P15873 1-258)
T2 sequence (looked up): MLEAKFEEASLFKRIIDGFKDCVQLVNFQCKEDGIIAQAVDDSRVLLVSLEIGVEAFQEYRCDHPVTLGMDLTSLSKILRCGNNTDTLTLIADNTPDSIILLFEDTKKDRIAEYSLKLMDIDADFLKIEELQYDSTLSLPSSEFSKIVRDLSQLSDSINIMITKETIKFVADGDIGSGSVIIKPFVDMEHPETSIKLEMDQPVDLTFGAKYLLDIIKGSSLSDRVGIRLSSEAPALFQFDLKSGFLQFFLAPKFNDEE

[3] = molecular target: T3, Nap1p (spotted on the yeast ProtoArray) (S. cerevisiae, UniProt P25293 1-417)
T3 sequence (looked up): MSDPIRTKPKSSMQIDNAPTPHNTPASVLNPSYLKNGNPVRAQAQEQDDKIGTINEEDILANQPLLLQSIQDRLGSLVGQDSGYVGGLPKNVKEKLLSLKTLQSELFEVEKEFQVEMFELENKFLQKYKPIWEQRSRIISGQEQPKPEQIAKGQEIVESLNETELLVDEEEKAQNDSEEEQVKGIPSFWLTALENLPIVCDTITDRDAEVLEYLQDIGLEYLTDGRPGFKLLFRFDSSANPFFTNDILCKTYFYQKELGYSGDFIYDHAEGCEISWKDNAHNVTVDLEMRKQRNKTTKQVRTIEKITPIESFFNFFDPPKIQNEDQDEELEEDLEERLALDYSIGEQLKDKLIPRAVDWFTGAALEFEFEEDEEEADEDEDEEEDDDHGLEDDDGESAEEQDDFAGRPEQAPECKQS

[4] = molecular target: Mal32p (spotted on the yeast ProtoArray) (S. cerevisiae, UniProt P38158 1-584)
[5] = molecular target: T4, Cia1p (spotted on the yeast ProtoArray) (S. cerevisiae, UniProt Q05583 1-330)
T4 sequence (looked up): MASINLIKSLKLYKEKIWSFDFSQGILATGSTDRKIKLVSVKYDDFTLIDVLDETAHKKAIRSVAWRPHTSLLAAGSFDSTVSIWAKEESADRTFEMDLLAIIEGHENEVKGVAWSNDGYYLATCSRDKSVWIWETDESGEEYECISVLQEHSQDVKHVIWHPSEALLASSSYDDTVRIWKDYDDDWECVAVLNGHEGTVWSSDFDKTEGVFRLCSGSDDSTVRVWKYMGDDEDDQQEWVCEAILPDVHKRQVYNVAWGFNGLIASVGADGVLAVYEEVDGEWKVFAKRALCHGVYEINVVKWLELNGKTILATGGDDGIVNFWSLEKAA

[6] = molecular target: T5, Qcr6p (spotted on the yeast ProtoArray) (S. cerevisiae, UniProt P00127 1-147)
T5 sequence (looked up): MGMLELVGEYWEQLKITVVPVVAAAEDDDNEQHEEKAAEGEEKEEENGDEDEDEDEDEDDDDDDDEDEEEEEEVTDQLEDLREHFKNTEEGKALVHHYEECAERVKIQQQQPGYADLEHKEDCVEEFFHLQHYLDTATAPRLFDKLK

[7] = molecular target: T6, Gpp2p (spotted on the yeast ProtoArray) (S. cerevisiae, UniProt P40106 1-250)
T6 sequence (looked up): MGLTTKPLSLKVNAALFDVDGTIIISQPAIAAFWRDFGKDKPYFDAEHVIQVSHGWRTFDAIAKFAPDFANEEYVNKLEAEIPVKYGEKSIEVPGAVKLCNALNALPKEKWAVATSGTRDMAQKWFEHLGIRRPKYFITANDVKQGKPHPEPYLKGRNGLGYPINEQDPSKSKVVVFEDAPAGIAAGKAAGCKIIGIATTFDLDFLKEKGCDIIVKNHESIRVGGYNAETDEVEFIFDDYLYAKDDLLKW

Measured: binding result

Chain of Mal32p (spotted on the yeast ProtoArray) (P38158 whole entry): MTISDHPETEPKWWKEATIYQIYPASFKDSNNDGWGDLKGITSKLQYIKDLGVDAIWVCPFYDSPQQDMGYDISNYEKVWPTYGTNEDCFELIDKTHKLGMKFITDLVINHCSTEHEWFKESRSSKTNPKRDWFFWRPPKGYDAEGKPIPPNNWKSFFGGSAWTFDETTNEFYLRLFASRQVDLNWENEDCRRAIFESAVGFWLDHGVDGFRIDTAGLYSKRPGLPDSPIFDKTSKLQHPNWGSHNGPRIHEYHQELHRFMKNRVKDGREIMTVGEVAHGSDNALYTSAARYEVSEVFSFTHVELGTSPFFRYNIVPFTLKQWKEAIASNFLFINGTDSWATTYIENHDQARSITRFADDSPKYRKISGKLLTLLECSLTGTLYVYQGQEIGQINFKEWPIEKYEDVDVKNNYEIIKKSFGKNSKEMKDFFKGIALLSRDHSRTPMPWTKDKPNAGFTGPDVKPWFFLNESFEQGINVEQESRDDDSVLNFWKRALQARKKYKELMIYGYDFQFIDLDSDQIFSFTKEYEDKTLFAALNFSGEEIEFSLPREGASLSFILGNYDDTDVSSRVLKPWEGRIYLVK

B1: purified and biotinylated cytoplasmic domain of the Msb2p protein (HIS-Msb2p^CYT) (domain or fragment, S. cerevisiae, UniProt P32334 1207-1306, looked up)
chain: AFKYIIRRRIQSQEIIKNPEISSISSSEFGGEKNYNNEKRMSVQESITQSMRIQNWMDDSYYGHGLTNNDSTPTRHNTSSSIPKISRPIASQNSLGWNEV
modifications: biotinylated in vitro (sites not given)
binds: [1] | [2] | [3] | [4] | [5] | [6] | [7]
